The source of these data is patent publication US20050163775A1, “Combination therapy for B cell disorders” (Genentech, Inc., priority 2003, published 2005).

The target in the experiment is T1, human BAFF (residues 82-285) (human, UniProt Q9Y275 82-285).
T1 construct: Coated on plates in the ELISAs; also used biotinylated or free in solution for phage sorting; also called BAFF82-285; BLyS82-285
The experiment is described as follows: phage display selection on BAFF.

Bridges are numbered along the chain shown (N, C = ends). Where no end group is shown, it is not given here.

T1 sequence (Q9Y275 82-285): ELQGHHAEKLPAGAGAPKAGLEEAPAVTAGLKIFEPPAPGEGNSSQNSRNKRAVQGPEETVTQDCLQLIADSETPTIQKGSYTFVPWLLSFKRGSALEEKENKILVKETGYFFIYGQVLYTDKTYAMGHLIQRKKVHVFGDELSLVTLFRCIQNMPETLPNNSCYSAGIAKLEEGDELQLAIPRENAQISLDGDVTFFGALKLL

Turning to ECFDLLVRAWVPCNELR [SEQ ID NO 84], the binding result is reported as “binds”. On to ECFDLLVRKWVPCQVLG [SEQ ID NO 67], for which the binding result is on record as “binds”.

As for ECFDLLVRQWVSCQVFA (disulfide 2-13 (inferred)) [SEQ ID NO 81], the binding result is “binds”. On to ECFDALVHRWVPCDLLR [SEQ ID NO 137], for which the binding result was “binds”. For the molecule ECFDLLVRGWVPCEKLM [SEQ ID NO 73], the binding result is listed as “binds”.

For the molecule ECFDLLVRSWVPCTLLS [SEQ ID NO 91], the binding result is “binds”.

With ECFDLLVRKWVPCSTFH (disulfide 2-13 (inferred)) [SEQ ID NO 92], the binding result is on record as “binds”.

With ECFDLLVRQWVPCRALM [SEQ ID NO 88], the binding result is reported as “binds”. Take ECFDLLVRSWVPCYSLK [SEQ ID NO 80]: the binding result is given as “binds”. Regarding ECFDLLVNSWVPCSVIA (disulfide 2-13 (inferred)) [SEQ ID NO 139], the binding result is on record as “binds”.

Take ECFDILVNRWVPCGALT (disulfide 2-13 (inferred)) [SEQ ID NO 133]: the binding result was “binds”. As to ECFDLLVRGWVPCSVLQ [SEQ ID NO 93], the binding result is listed as “binds”. As to ECFDLLVRDWVPCSLLF [SEQ ID NO 90], the binding result was “binds”. In the case of ECFDLLVRRWVDCAFLH [SEQ ID NO 76], the binding result is reported as “binds”. The value for ECFDLLVRRWVPCELLV [SEQ ID NO 79] was “binds”. Take ECFDPLVNAWVPCAVLH (disulfide 2-13 (inferred)) [SEQ ID NO 135]: the binding result is given as “binds”.

Turning to ECFDLLVRTWVPCQAIL (disulfide 2-13 (inferred)) [SEQ ID NO 71], the binding result is “binds”. For the molecule ECFDSLVRIWVPCGLID [SEQ ID NO 141], the binding result is recorded as “binds”.

In the case of ECFDSLVNAWVPCHVLT (disulfide 2-13 (inferred)) [SEQ ID NO 142], the binding result is reported as “binds”. Turning to ECFDLLVRVWVPCSRLY [SEQ ID NO 82], the binding result is reported as “binds”. Turning to ECFDLLVRRWVPCSLVK [SEQ ID NO 87], the binding result was “binds”.

In the case of ECFDLLVRAWVPCSYLS [SEQ ID NO 89], the binding result is reported as “binds”. In the case of ECFDLLVRAWVRCDMLL [SEQ ID NO 72], the binding result is recorded as “binds”. Take ECFDLLVREWVPCRILQ [SEQ ID NO 85]: the binding result is “binds”. ECFDLLVRAWVPCWLRL [SEQ ID NO 74]: the binding result was “binds”. On to ECFDPLVRDWVPCDLIH (disulfide 2-13 (inferred)) [SEQ ID NO 138], for which the binding result is “binds”. Regarding ECFDTLVRAWVPCSHLT (disulfide 2-13 (inferred)) [SEQ ID NO 140], the binding result is “binds”. The result for ECFDPLVLRWVPCSALH (disulfide 2-13 (inferred)) [SEQ ID NO 136] reads “binds”. Turning to ECFDLLVRSWVPCGTLM [SEQ ID NO 69], the binding result was “binds”. As for ECFDDLVRHWVPCDLLT [SEQ ID NO 131], the binding result is “binds”. In the case of ECFDLLVRRWVPCGLLR [SEQ ID NO 75], the binding result is given as “binds”.

ECFDLLVRTWVECSLLN [SEQ ID NO 68]: the binding result is given as “binds”.

In the case of ECFDLLVRRWVPCSWLL [SEQ ID NO 86], the binding result is recorded as “binds”.

ECFDPLVRHWVPCRALD [SEQ ID NO 130]: the binding result was “binds”.

For ECFDLLVRSWVPCSSLG [SEQ ID NO 77], the binding result is recorded as “binds”. ECFDLLVRSWVPCHMLR [SEQ ID NO 70]: the binding result is “binds”.

On to ECFDVLVNAWVDCAVLR (disulfide 2-13 (inferred)) [SEQ ID NO 128], for which the binding result is “binds”. As for ECFDGLVNAWVDCGLLR [SEQ ID NO 129], the binding result was “binds”.

For ECFDLLVRRWVPCEMLG [SEQ ID NO 66], the binding result is recorded as “binds”.

As to ECFDVLVRAWVPCRALT (disulfide 2-13 (inferred)) [SEQ ID NO 132], the binding result is listed as “binds”.

Consider ECFDLLVRQWVPCGALG [SEQ ID NO 83], for which the binding result is “binds”. With ECFDDLVRNWVPCALLN [SEQ ID NO 134], the binding result is “binds”. Turning to ECFDLLVRQWVPCERIR [SEQ ID NO 65], the binding result is reported as “binds”.
